From EP4566632A1, “MSLN ANTIBODY-DRUG CONJUGATE” (priority 2022, dated 2024) come the findings set out here.

In the assay the test system is NCI-H226 cells. As to the kind of experiment: Lung cancer NCI-H226 model. The conditions noted are these: tail vein, twice a week x5, day 28 post-administration. Type of assay: in vivo, BALB/c Nude mouse. The procedure: NCI-H226 cells were cultured in a RPMI-1640 medium containing 10% fetal bovine serum at 37°C in a 5% CO2 atmosphere. On the day of inoculation, NCI-H226 cells in the exponential growth phase were collected. Tumor cells were first resuspended in a mixture of PBS and Matrigel (1:1) and then subcutaneously inoculated. Each BALB/c Nude mouse was subcutaneously inoculated with 5 × 10^6 NCI-H226 tumor cells. When the average tumor volume in each group of mice reached 150 mm^3, the mice were divided into groups for dosing. 55 mice were divided into 11 groups, after which dosing began. The dosing schedule was twice a week for a total of five administrations via tail vein injection at doses of 1 mg/kg body weight or 5 mg/kg body weight. After dosing began, body weight and tumor volume were measured twice weekly. Tumor volume was calculated using the formula of: Tumor Volume (mm^3) = 0.5 × Tumor long diameter × Tumor short diameter^2. Observations concluded on day 28 post-administration, followed by the euthanasia of all mice. Data analysis was performed using the t-test.

B1: BAY-949343: ADC developed by Bayer: anti-MSLN monoclonal antibody MF-T (anetumab) conjugated to maytansinoid DM4 via SPDB linker (conjugate, chains of the INN, looked up)
VH: QVELVQSGAEVKKPGESLKISCKGSGYSFTSYWIGWVRQAPGKGLEWMGIIDPGDSRTRYSPSFQGQVTISADKSISTAYLQWSSLKASDTAMYYCARGQLYGGTYMDGWGQGTLVTVSS
VL: DIALTQPASVSGSPGQSITISCTGTSSDIGGYNSVSWYQQHPGKAPKLMIYGVNNRPSGVSNRFSGSKSGNTASLTISGLQAEDEADYYCSSYDIESATPVFGGGTKLTVL
modifications: DM4 via SPDB linker (ravtansine)
In the case of B1, the average tumor volume worked out at 497 mm^3 (1 mg/kg) and 253 mm^3 (5 mg/kg). In addition, the “tumor growth inhibition rate (TGI, %)” value by setting is: (1 mg/kg) 68%; (5 mg/kg) 84%.
